Test results taken from patent publication US20090035321A1, “Intercellular adhesion molecules and their binding ligands” (Boehringer Ingelheim Pharmaceuticals, Inc., published 2009).

Assays:
Experiment in all cases: 35S-HRV14 on COS cells
ICAM-1 V4/G = ICAM-1 V4/G (human, UniProt P05362)
Procedure: (§1) COS cells were seeded into 10 cm tissue culture plates such that they would be 50% confluent by 16-24 hrs. COS cells were then washed once with TBS and incubated for 4 hrs with 4 ml RPMI containing 10% Nu sera (Collaborative) 5 pg/ml chloroquine, 3 μg of mutant plasmid and 200 μg/ml DEAE-dextran sulfate. Cells were then washed with 10% DMSO/PBS followed by PBS and cultured 16 hrs in culture media. Culture media was replaced with fresh media and at 48 hrs post transfection (OS cells were suspended by trypsin/EDTA (Gibco) treatment and divided into 2, 10 cm plates as well as 24 well tissue culture plates for HRV binding. At 72 hrs cells were harvested from 10 cm plates with 5 mM EDTA/HBSS and processed for adhesion to LFA-1 coated plastic and immunofluorescence.
(§2) Binding occurred in 1 hr at 35° C. in a 5% CO₂ atmosphere with horizontal rotation (100 rpm). Unbound [³⁵S] HRV14 was aspirated, COS cells were gently washed with 150 ml of HRV buffer and then solubilized with 1% SDS in PBS for scintillation counting.
(§3) In Table 25, the notation for the mutations uses the one-letter code for the wild-type sequence followed by a slash and the one-letter code for the corresponding mutant sequence. The position of the first amino acid within the sequence is indicated. Wild type residues precede the slash followed by the residues they were substituted for in the mutant. COS cells expressing ICAM-1 mutants were tested for adherence to LFA-1 coated plastic and for binding 35S met-labeled HRV14. […] Binding is presented as mean and standard error (SE) for multiple experiments (n). […] The specific linear fluorescence intensity (SLFI) of CL203 for each mutant is normalized to that of wild type CL203 SLFI (% WT) as discussed above. The SLFI of RR1/1, R6.5 and LB-2 SLFI is normalized to the CL203 SLFI of the mutant (% CL203) as described above.

ICAM-1 G15/SA = ICAM-1 G15/SA (human, UniProt P05362)
Procedure: as §1, §2, §3

ICAM-1 N68/K = ICAM-1 N68/K (human, UniProt P05362)
Procedure: as §1, §2, §3

ICAM-1 E111GGA/KAGS = ICAM-1 E111GGA/KAGS (human, UniProt P05362)
Procedure: as §1, §2, §3

ICAM-1 S3VS/AGL = ICAM-1 S3VS/AGL (human, UniProt P05362)
Procedure: as §1, §2, §3

ICAM-1 G46NN/ASI = ICAM-1 G46NN/ASI (human, UniProt P05362)
Procedure: as §1, §2, §3

ICAM-1 R13G/EA = ICAM-1 R13G/EA (human, UniProt P05362)
Procedure: as §1, §2, §3

ICAM-1 T20CS/ACT = ICAM-1 T20CS/ACT (human, UniProt P05362)
Procedure: as §1, §2, §3

ICAM-1 N56V/HM = ICAM-1 N56V/HM (human, UniProt P05362)
Procedure: as §1, §2, §3

ICAM-1 Q62PM/API = ICAM-1 Q62PM/API (human, UniProt P05362)
Procedure: as §1, §2, §3

ICAM-1 R149RD/EEG = ICAM-1 R149RD/EEG (human, UniProt P05362)
Procedure: as §1, §2, §3

ICAM-1 N175TSA/QTLG = ICAM-1 N175TSA/QTLG (human, UniProt P05362)
Procedure: as §1, §2, §3

ICAM-1 N103/K = ICAM-1 N103/K (human, UniProt P05362)
Procedure: as §1, §2, §3

ICAM-1 Y83/S = ICAM-1 Y83/S (human, UniProt P05362)
Procedure: as §1, §2, §3

ICAM-1 Y52/FA = ICAM-1 Y52/FA (human, UniProt P05362)
Procedure: as §1, §2, §3

ICAM-1 L91/A = ICAM-1 L91/A (human, UniProt P05362)
Procedure: as §1, §2, §3

ICAM-1 S61/I = ICAM-1 S61/I (human, UniProt P05362)
Procedure: as §1, §2, §3

ICAM-1 E127/R = ICAM-1 E127/R (human, UniProt P05362)
Procedure: as §1, §2, §3

ICAM-1 K40/A = ICAM-1 K40/A (human, UniProt P05362)
Procedure: as §1, §2, §3

ICAM-1 Q1/E = ICAM-1 Q1/E (human, UniProt P05362)
Procedure: as §1, §2, §3

ICAM-1 E87/K = ICAM-1 E87/K (human, UniProt P05362)
Procedure: as §1, §2, §3

ICAM-1 R13/Q = ICAM-1 R13/Q (human, UniProt P05362)
Procedure: as §1, §2, §3

ICAM-1 G101K/AN = ICAM-1 G101K/AN (human, UniProt P05362)
Procedure: as §1, §2, §3

ICAM-1 R13/K = ICAM-1 R13/K (human, UniProt P05362)
Procedure: as §1, §2, §3

ICAM-1 D213GL/HGV = ICAM-1 D213GL/HGV (human, UniProt P05362)
Procedure: as §1, §2, §3

ICAM-1 D60/N = ICAM-1 D60/N (human, UniProt P05362)
Procedure: as §1, §2, §3

ICAM-1 N156/E = ICAM-1 N156/E (human, UniProt P05362)
Procedure: as §1, §2, §3

ICAM-1 D71/E = ICAM-1 D71/E (human, UniProt P05362)
Procedure: as §1, §2, §3

ICAM-1 Q58/H = ICAM-1 Q58/H (human, UniProt P05362)
Procedure: as §1, §2, §3

B1: human rhinovirus 14 (HRV14) (other)
chain: GAQVSTQKSGSHENQNILTNGSNQTFTVINYYKDAASTSSAGQSLSMDPSKFTEPVKDLMLKGAPALNSPNVEACGYSDRVQQITLGNSTITTQEAANAVVCYAEWPEYLPDVDASDVNKTSKPDTSVCRFYTLDSKTWTTGSKGWCWKLPDALKDMGVFGQNMFFHSLGRSGYTVHVQCNATKFHSGCLLVVVIPEHQLASHEGGNVSVKYTFTHPGERGIDLSSANEVGGPVKDVIYNMNGTLLGNLLIFPHQFINLRTNNTATIVIPYINSVPIDSMTRHNNVSLMVIPIAPLTVPTGATPSLPITVTIAPMCTEFSGIRSKSIVPQGLPTTTLPGSGQFLTTDDRQSPSALPNYEPTPRIHIPGKVHNLLEIIQVDTLIPMNNTHTKDEVNSYLIPLNANRQNEQVFGTNLFIGDGVFKTTLLGEIVQYYTHWSGSLRFSLMYTGPALSSAKLILAYTPPGARGPQDRREAMLGTHVVWDIGLQSTIVMTIPWTSGVQFRYTDPDTYTSAGFLSCWYQTSLILPPETTGQVYLLSFISACPDFKLRLMKDTQTISQTVALTEGLGDELEEVIVEKTKQTVASISSGPKHTQKVPILTANETGATMPVLPSDSIETRTTYMHFNGSETDVECFLGRAACVHVTEIQNKDATGIDNHREAKLFNDWKINLSSLVQLRKKLELFTYVRFDSEYTILATASQPDSANYSSNLVVQAMYVPPGAPNPKEWDDYTWQSASNPSVFFKVGDTSRFSVPYVGLASAYNCFYDGYSHDDAETQYGITVLNHMGSMAFRIVNEHDEHKTLVKIRVYHRAKHVEAWIPRAPRALPYTSIGRTNYPKNTEPVIKKRKGDIKSY
modifications: [35S]-Met labeled
B1 was tested, and the “HRV Binding %” value (ICAM-1 V4/G) was 30 % of wild type, the “HRV Binding %” value (ICAM-1 G15/SA) was 164 % of wild type and the “HRV Binding %” value (ICAM-1 N68/K) was 137 % of wild type. The “HRV Binding %” value (ICAM-1 E111GGA/KAGS) was 162 % of wild type, the “HRV Binding %” value (ICAM-1 S3VS/AGL) was 61 % of wild type and the “HRV Binding %” value (ICAM-1 G46NN/ASI) was 9 % of wild type. For the same binder, the “HRV Binding %” value (ICAM-1 R13G/EA) was 3 % of wild type, the “HRV Binding %” value (ICAM-1 T20CS/ACT) was 130 % of wild type and the “HRV Binding %” value (ICAM-1 N56V/HM) was 101 % of wild type. For the same binder, the “HRV Binding %” value (ICAM-1 Q62PM/API) was 182 % of wild type, the “HRV Binding %” value (ICAM-1 R149RD/EEG) was 139 % of wild type and the “HRV Binding %” value (ICAM-1 N175TSA/QTLG) was 40 % of wild type. The “HRV Binding %” value (ICAM-1 N103/K) was 13 % of wild type, the “HRV Binding %” value (ICAM-1 Y83/S) was 86 % of wild type and the “HRV Binding %” value (ICAM-1 Y52/FA) was 125 % of wild type. For the same binder, the “HRV Binding %” value (ICAM-1 L91/A) was 105 % of wild type, the “HRV Binding %” value (ICAM-1 S61/I) was 111 % of wild type and the “HRV Binding %” value (ICAM-1 E127/R) was 131 % of wild type. The “HRV Binding %” value (ICAM-1 K40/A) was 89 % of wild type, the “HRV Binding %” value (ICAM-1 Q1/E) was 149 % of wild type and the “HRV Binding %” value (ICAM-1 E87/K) was 27 % of wild type. The “HRV Binding %” value (ICAM-1 R13/Q) was 60 % of wild type, the “HRV Binding %” value (ICAM-1 G101K/AN) was 140 % of wild type and the “HRV Binding %” value (ICAM-1 R13/K) was 123 % of wild type. For the same binder, the “HRV Binding %” value (ICAM-1 D213GL/HGV) was 99 % of wild type, the “HRV Binding %” value (ICAM-1 D60/N) was 89 % of wild type and the “HRV Binding %” value (ICAM-1 N156/E) was 107 % of wild type. For the same binder, the “HRV Binding %” value (ICAM-1 D71/E) was 140 % of wild type and the “HRV Binding %” value (ICAM-1 Q58/H) was 1 % of wild type.
